Assay results: patent EP4644426A1 (Gan & Lee Pharmaceuticals Co., Ltd., dated 2025)

How the values were obtained:
human FXIa factor [1] = target: T1, human FXIa factor (human, UniProt P03951 19-625); experiment: cell-based or functional assay
human FXIa factor [2] = target: T1, human FXIa factor; experiment: cell-based or functional assay; remark: listed apart in the source
human FXIa factor [3] = target: T1, human FXIa factor; experiment: cell-based or functional assay; remark: listed apart in the source
human FXIa factor [4] = target: T1, human FXIa factor; experiment: cell-based or functional assay; remark: listed apart in the source
human FXIa factor [5] = target: T1, human FXIa factor; experiment: Biacore 8K (SPR), human FXIa in 2-fold dilution series
human FXIa factor [6] = target: T1, human FXIa factor; experiment: cell-based or functional assay; remark: listed apart in the source

B1: chimeric antibody 19C9C10 (antibody, V domains shown)
VH: EVKLEESGAELVKTGASVKLSCTASGFNIKDTYMHWVKQRPEQGLEWIGRIDPANDNTKYDPKFQGRATVTADTSSNTAYLQLISLTSEDTAVYYCAGDYDGYAMDYWGQGTSVTVSS
VL: DIVMTQTTSSLSVSLGGKVTITCKASQDINKYVAWFQHKPGKGPRLLMHYTSTLEPGIPSRFSGSGSGRDYSFTISNLEPEDIATYYCLQYDNLLTFGGGTKLEIK
Human FXIa factor [1]
  FXIa Kit Activity Assay (nM), IC50 (Second Batch): 1.31 nM
Human FXIa factor [2]
  IC50(nM) from S2366 assay (Second Batch): 38.5 nM

B2: chimeric antibody 17E3C10 (antibody, V domains shown)
VH: QVKLQESGPELRKPGETVYISCKASGYTFTNYGVNWVKQAPGKGLKWMGWINTYTGEPIYADDFKGRFAFSLETSANTAYLQISNLTNEDTATYFCARLYLYGNTYDYYAMDYWGQGTSVTVSS
VL: DIVLTQTPSSMYASLGERVTITCKASQDISTYLSWFQQKPGKSPKTLIYRANRLIDGVPSRFSGSGSGQDFSLTISSLEYEDMGVYYCLQYDDLNTFGGGTKLEIK
Human FXIa factor [1]
  FXIa Kit Activity Assay (nM), IC50 (Second Batch): 0.781 nM
Human FXIa factor [2]
  IC50(nM) from S2366 assay (Second Batch): 44.4 nM

B3: chimeric antibody 14F3 (antibody, V domains shown)
VH: QVQLQQSGAELVRPGTSVTVSCKASGYAFSNYLIEWVNQRPGQGLEWIGVINPGSGYTNYNENFKDKATLTADTSSSTAYMQLSSLTSDDSAVYFCARTYGKYGGAMDFWGQGTSVTVSS
VL: DIVMTQTPKFLLVSAGDRVTITCKASQSVSNDVAWYQQKPGQSPKLLIYYISNRYTGVPDRFTGSGYGTDFTFTINTVQAEDLAVYFCQQDYSSPPTFGGGTKLEIK
Human FXIa factor [1]
  FXIa Kit Activity Assay (nM), IC50 (First Batch): 7.77 nM
Human FXIa factor [2]
  IC50(nM) from S2366 assay (First Batch): 78.7 nM

B4: chimeric antibody 17E10 (antibody, V domains shown)
VH: EVQLEESGPGLVKPSQSLSLTCSVTGYSITSGFYWNWIRQFPGNKLEWMGYISFDGRHNYNPSLKNRFSITRDTSKNQFFLKLTSVTAEDTATYYCARDLITTVYYYPMDYWGQGTSVTVSS
VL: DIVMTQSHKFMSTSVGDRVSITCKASQDVGTAVDWYQQKTGQSPKLLIYWASTRHTGVPDRFTGSGSGTDFTLTISNVQSEDLADYFCQQYSNYPLTFGAGTKLELK
Human FXIa factor [1]
  FXIa Kit Activity Assay (nM), IC50 (First Batch): 11.6 nM

B5: chimeric antibody 11E8 (antibody, V domains shown)
VH: EVKLQESGPELVKTGASVKISCKASGYSFTGYFMNWVKQSHGKSLEWIGFINCYNGATSYNQKFKGKATFTVDASSSSAYMQFNSLTSEDSAVYYCARTISTGDSFDYWGQGSTLTVSS
VL: DIVMTQSTSYLSVSLGGRVTITCKASDHINNWLAWYQQKPGDAPSLLISGASRLETGVPSRFSGSGSGKDYTLSITSLQTEDVATYYCQQYWTTPFTFGSGTKLEIK
Human FXIa factor [1]
  FXIa Kit Activity Assay (nM), IC50 (Third Batch): 7.8 nM
Human FXIa factor [2]
  IC50(nM) from S2366 assay (Third Batch): 93.1 nM

B6: Osocimab (antibody, V domains shown)
VH: EVQLLESGGGLVQPGGSLRLSCAASGFTFSQYGMDWVRQAPGKGLEWVSGIGPSGGSTVYADSVKGRFTISRDNSKNTLYLQMNSLRAEDTAVYYCTRGGPYYYYGMDVWGQGTTVTVSS
VL: DIQMTQSPSSLSASVGDRVTITCQASQDISNYLNWYQQKPGKAPKLLIYDASNLETGVPSRFSGSGSGTDFTFTISSLQPEDIATYYCQQADSFPVTFGGGTKVEIK
Human FXIa factor [3]
  IC50 (nM) from S2366 Assay: 226 nM
Human FXIa factor [4]
  FXIa kit Activity Assay (nM), IC50: 32.5 nM
Human FXIa factor [5]
  Kd: 6.37 nM
  koff: 0.00411 s⁻¹
  kon: 645000 M⁻¹ s⁻¹

B7: 24B6-sy (antibody, V domains shown)
VH: EVQLQESGGDLVKPGGSLKLSCAASGFTFSSYGMSWVRQTPDKRLEWVATISSGGSFTYYPDSVKGRFTISRDNAKNTLYLQMSSLKSEDTAMYYCASLTSEGYAMEYWGQGTSVTVSS
VL: DIVLTQSPASLAVSLGQRATISCRASKSVSTSGYSHMHWYQQKLGQPPKLLIYLASNLESGVPARFSGSGSGTDFTLNIHPVEEEDAATYYCQHSRELPYTFGGGTKLEIK
Human FXIa factor [6]
  OD405nm, S2366 activity assay, antibody at 20µg/mL: 0.268 OD405nm

B8: chimeric antibody 24B6 (antibody, V domains shown)
VH: EVQLQESGGDLVKPGGSLKLSCAASGFTFSSYGMSWVRQTPDKRLEWVATISSGGSFTYYPDSVKGRFTISRDNAKNTLYLQMSSLKSEDTAMYYCASLTSEGYAMEYWGQGTSVTVSS
VL: DIVLTQSPASLAVSLGQRATISCRASKSVSTSGYSHMHWYQQKLGQPPKLLIYLASNLESGVPARFSGSGSGTDFTLNIHPVEEEDAATYYCQHSRELPYTFGGGTKLEIK
Human FXIa factor [1]
  FXIa Kit Activity Assay (nM), IC50 (First Batch): 6.7 nM
Human FXIa factor [2]
  IC50(nM) from S2366 assay (First Batch): 122 nM

B9: chimeric antibody 3B3 (antibody, V domains shown)
VH: EVQLEESGADLVRPGTSVKVSCKASGYAFTNYLIDWLKQRPGQGLEWIGVINPGSGITNYNEKFKGKATLTTDTSSSTAYMQLTNLTSDDSAVYFCARGDGTYYEDFLDYWGQGTSVTVSS
VL: DIVLTQTTSSIYTSLGERVTITCKASQDINSYLSWFQQRPGRSPKTLIYRANRLMDGVPSRFSGSGSGRDFSLTISSLDYEDMGIYYCLQYDEFPLTFGAGTKLELK
Human FXIa factor [2]
  IC50(nM) from S2366 assay (Fourth Batch): 42.4 nM

B10: chimeric antibody 29E10C4 (antibody, V domains shown)
VH: QVKLEESGAELVRPGTSVKVSCKASGYAFTDYFIEWIKQRPGQGLEWIGVINPGNDVTNYNEKFKGKATLTVDKSSTTAYMQLSSLTSDDSAVYFCTRSAGNYENSMDFWGQGTSVTVSS
VL: DIVLTQSPKFLLVSAGDRVTITCKASQSVSNDVGWYQQKPGQSPKLLIYYTSNRYTGVPDRFTGSGYGTDFTFTISSVQAEDLAVYFCQQDYHFPLTFGAGTKLELK
Human FXIa factor [1]
  FXIa Kit Activity Assay (nM), IC50 (Second Batch): 0.219 nM
Human FXIa factor [2]
  IC50(nM) from S2366 assay (Second Batch): 34.9 nM

B11: humanized antibody 14F3-Z1 (antibody, human IgG1, kappa, V domains shown)
VH: QVQLVQSGAEVKKPGASVKVSCKASGYAFSNYLIEWVGQAPGQGLEWMGVINPGSGYTNYNENFKDRVTMTAHTSISTAYMELSRLRSDDTAVYFCARTYGKYGGAMDFWGQGTLVTVSS
VL: DIQMTQSPSSLSASVGDRVTITCKASQSVSNDVAWYQQKPGKAPKLLIYYISNRYTGVPSRFSGSGSGTDFTFTISSLQPEDIATYFCQQDYSSPPTFGQGTKLEIKR
Human FXIa factor [3]
  IC50 (nM) from S2366 Assay: 54.1 nM
Human FXIa factor [4]
  FXIa kit Activity Assay (nM), IC50: 8.53 nM

B12: humanized antibody 14F3-Z4 (antibody, human IgG1, kappa, V domains shown)
VH: QVQLVQSGAEVKKPGSSVKVSCKASGYAFSNYLIEWVRQAPGQGLEWMGVINPGSGYTNYNENFKDRVTITADESTSTAYMELSSLRSEDTAVYFCARTYGKYGGAMDFWGQGTTVTVSS
VL: DIQMTQSPSFLSASVGDRVTITCKASQSVSNDVAWYQQKPGKAPKLLIYYISNRYTGVPSRFSGSGSGTDFTLTISSLQPEDFATYFCQQDYSSPPTFGQGTKLEIKR
Human FXIa factor [3]
  IC50 (nM) from S2366 Assay: 55.8 nM
Human FXIa factor [4]
  FXIa kit Activity Assay (nM), IC50: 13.6 nM

B13: humanized antibody 14F3-2 (antibody, human IgG1, kappa, V domains shown)
VH: QVQLVQSGAEVKKPGASVKVSCKASGYTFTNYLIEWVRQAPGQGLEWMGVINPGSGYTNYNENFKDRVTMTRDTSISTAYMELSRLRSDDTAVYYCARTYGKYGGAMDFWGQGTTVTVSS
VL: DIVMTQSPDSLAVSLGERATINCKASQSVSNDVAWYQQKPGQPPKLLIYYISNRYTGVPDRFSGSGSGTDFTLTISSLQAEDVAVYFCQQDYSSPPTFGGGTKLEIKR
Human FXIa factor [3]
  IC50 (nM) from S2366 Assay: 43 nM
Human FXIa factor [4]
  FXIa kit Activity Assay (nM), IC50: 9.69 nM

B14: humanized antibody 14F3-Z3 (antibody, human IgG1, kappa, V domains shown)
VH: QVQLVQSGAEVKKPGSSVKVSCKASGYAFSNYLIEWVRQAPGQGLEWMGVINPGSGYTNYNENFKDRVTITADESTSTAYMELSSLRSEDTAVYYCARTYGKYGGAMDFWGQGTTVTVSS
VL: DIQMTQSPSFLSASVGDRVTITCKASQSVSNDVAWYQQKPGKAPKLLIYYISNRYTGVPSRFSGSGSGTDFTLTISSLQPEDFATYYCQQDYSSPPTFGQGTKLEIKR
Human FXIa factor [3]
  IC50 (nM) from S2366 Assay: 56.3 nM
Human FXIa factor [4]
  FXIa kit Activity Assay (nM), IC50: 13.5 nM

B15: humanized antibody 14F3-1 (antibody, human IgG1, kappa, V domains shown)
VH: QVQLVQSGAEVKKPGASVKVSCKASGYTFTNYLIEWVRQAPGQGLEWMGVINPGSGYTNYNENFKDRVTMTRDTSISTAYMELSRLRSDDTAVYYCARTYGKYGGAMDFWGQGTTVTVSS
VL: DIVMTQSPDSLAVSLGERATINCKASQSVSNDVAWYQQKPGQPPKLLIYYISNRYTGVPDRFSGSGSGTDFTLTISSLQAEDVAVYYCQQDYSSPPTFGGGTKLEIKR
notes: To be verified
Human FXIa factor [3]
  IC50 (nM) from S2366 Assay: 45.4 nM
Human FXIa factor [4]
  FXIa kit Activity Assay (nM), IC50: 7.5 nM
Human FXIa factor [5]
  Kd: 0.000809 nM
  koff: 1.05e-05 s⁻¹
  kon: 1.3e+07 M⁻¹ s⁻¹

B16: humanized antibody 14F3-3 (antibody, human IgG1, kappa, V domains shown)
VH: QVQLVQSGAEVKKPGASVKVSCKASGYTFTNYLIEWVRQAPGQGLEWIGVINPGSGYTNYNENFKDRATLTADTSISTAYMELSRLRSDDTAVYFCARTYGKYGGAMDFWGQGTTVTVSS
VL: DIVMTQSPDSLAVSLGERATINCKASQSVSNDVAWYQQKPGQPPKLLIYYISNRYTGVPDRFSGSGSGTDFTLTISSLQAEDVAVYYCQQDYSSPPTFGGGTKLEIKR
Human FXIa factor [3]
  IC50 (nM) from S2366 Assay: 52.7 nM
Human FXIa factor [4]
  FXIa kit Activity Assay (nM), IC50: 10.7 nM

B17: humanized antibody 14F3-4 (antibody, human IgG1, kappa, V domains shown)
VH: QVQLVQSGAEVKKPGASVKVSCKASGYTFTNYLIEWVRQAPGQGLEWIGVINPGSGYTNYNENFKDRATLTADTSISTAYMELSRLRSDDTAVYFCARTYGKYGGAMDFWGQGTTVTVSS
VL: DIVMTQSPDSLAVSLGERATINCKASQSVSNDVAWYQQKPGQPPKLLIYYISNRYTGVPDRFSGSGSGTDFTLTISSLQAEDVAVYFCQQDYSSPPTFGGGTKLEIKR
Human FXIa factor [3]
  IC50 (nM) from S2366 Assay: 64.7 nM
Human FXIa factor [4]
  FXIa kit Activity Assay (nM), IC50: 15.7 nM

B18: humanized antibody 14F3-Z2 (antibody, human IgG1, kappa, V domains shown)
VH: QVQLVQSGAEVKKPGASVKVSCKASGYAFSNYLIEWVGQAPGQGLEWMGVINPGSGYTNYNENFKDRVTMTRHTSISTAYMELSRLRSDDTAVYFCARTYGKYGGAMDFWGQGTLVTVSS
VL: DIQMTQSPSSLSASVGDRVTITCKASQSVSNDVAWYQQKPGKAPKLLIYYISNRYTGVPSRFSGSGSGTDFTFTISSLQPEDIATYYCQQDYSSPPTFGQGTKLEIKR
Human FXIa factor [3]
  IC50 (nM) from S2366 Assay: 57.3 nM
Human FXIa factor [4]
  FXIa kit Activity Assay (nM), IC50: 8.79 nM
